Assay results published in the RNAGym collection of RNA variant scans (doi:10.7554/elife.90254).

B1: LINE1-full (parent)
chain: UACGUAGGUGGUUUUCCCCUGAUAGUGCUAAGGGGGCCUGGAAGUUUGGACUGGGCAGAGCUCAACACAGCGUGGCAAAGUGGCUGUGGCUAGACUGCCUCUCUGGAUUCCUCGUCACUCAGCAGGGCAUCUCUGAGAGAAAUGCC

Variants of: B1
Experiment: self-cleavage, relative activity (ratio to wild type); higher = more cleavage; in vitro, sequencing; the parent is a self-cleaving ribozyme

First: UACGUAGGUGGUUUUCCCCUGAUAGUGCUAAGGUGGCCUGGAAGUUUGGACUGGGCAGAGCUCAACACAGCGUGGCAAAGCGGCUGUGGCUAGACUGCCUCUCUGGAUUCCUCGUCACUCAGCAGGGCAUCUCUGAGAGAAAUGCC [G34U U81C]
Second: UACGUAGGUGGUUUUCCCCUGAUAGUGCUAAGGUGGCCUGGAAGUUUGGACAGGGCAGAGCUCAACACAGCGUGGCAAAGUGGCUGUGGCUAGACUGCCUCUCUGGAUUCCUCGUCACUCAGCAGGGCAUCUCUGAGAGAAAUGCC [G34U U52A]
The self-cleavage of the first is higher: 2.12 for the first, 1.22 for the second.

Going from UACGUAGGUGGUUUUCCCCUGAUAGUGCUAAGGUGGCCUGGAAGUUUGGACUGGGCAGAGCUCAACACAGCGUGGCAAAGUGGCUGUGGCUAGACGGCCUCUCUGGAUUCCUCGUCACUCAGCAGGGCAUCUCUGAGAGAAAUGCC [G34U U96G] to UACGUAGGUGGUUUUCCCCUGAUAGUGCUAAGGUGGCCUGGAAGUUUGGACUGGGCAGAGCUCAACACAGCGUGGCAAAGUGGCUGUGGCUAGACUGCCUCUCUGGAUUCCUCGUCACUCAGCAGGGCAUCUCUGAGAGAAAGGCC [G34U U143G], the self-cleavage rises from 0 to 1.01.

Going from UACGUAGGUGGUUUUCCCCUGAUAGUGCUAAGGUGGCCUGGAAGUUUGGACUGGGCAGAGCUCAACACAGCGAGGCAAAGUGGCUGUGGCUAGACUGCCUCUCUGGAUUCCUCGUCACUCAGCAGGGCAUCUCUGAGAGAAAUGCC [G34U U73A] to UACGUAGGUGGUUUUCCCCUGAUAGUGCUAAGGUGGCCUGGAAGUUUGGACUGGGCAGAGCUCAACACAGCGGGGCAAAGUGGCUGUGGCUAGACUGCCUCUCUGGAUUCCUCGUCACUCAGCAGGGCAUCUCUGAGAGAAAUGCC [G34U U73G], the self-cleavage falls from 2.36 to 0.99.

Compared with UACGUAGGUGGUUUUCCCCUGAUAGUGCUAAGGGAGCCUGGAAGUUUGGACUGGGCAGAGCUCAACACAGCGUGGCAAAGUGGCUGUGGCUAGACUGCCUCUCUGGAUUCCUCGUCACUCAGCAGGGCAUCUCUGAGGGAAAUGCC [G35A A138G], UACGUAGGUGGUUUUCCCCUGAUAGUGCUAAGGUGGCCUGGAAGUUUGGACUGGGCAGAGCUCAACACAGCGUGGCAAAGUGGCUGUGGCUAGACUGCCUCUCUGGAUCCCUCGUCACUCAGCAGGGCAUCUCUGAGAGAAAUGCC [G34U U109C] is higher in self-cleavage: 1.22 for the first, 1.52 for the second.

Going from UACGUAGGUGGUUUUCCCCUGAUAGUGCUAAGGUGGCCUGGAAGUUUGGACUGGGCAGAGCUCAACACAGCGUGGCAAAGUGGCGGUGGCUAGACUGCCUCUCUGGAUUCCUCGUCACUCAGCAGGGCAUCUCUGAGAGAAAUGCC [G34U U85G] to UACGUAGGUGGUUUUCCCCUGAUAGUGCUAAGGGAGCCCGGAAGUUUGGACUGGGCAGAGCUCAACACAGCGUGGCAAAGUGGCUGUGGCUAGACUGCCUCUCUGGAUUCCUCGUCACUCAGCAGGGCAUCUCUGAGAGAAAUGCC [G35A U39C], the self-cleavage rises from 0.09 to 0.53.

First: UACGUAGGUGGUUUUCCCCUGAUAGUGCUAAGGUGGCCUGGAAGUUUGGACUGGGCAGAGCUCAACACAGCGUGGCAAAGUGGCUGUGGCUAGACUGCCUCUCUGGAUUCCUCGUCACUCAGCAGGGCAUCUCCGAGAGAAAUGCC [G34U U134C]
Second: UACGUAGGUGGUUUUCCCCUGAUAGUGCUAAGGUGGCCUGGAAGUUUGGACUGGGCAGAGCUCAACACAGCGUGGCAAAGUGGCUGUGGCUAGACUGCCUCUCUGGAUUCCUCGUCACUCAGCAGGGCAUCUCAGAGAGAAAUGCC [G34U U134A]
The self-cleavage of the first is higher: 1.57 for the first, 1.04 for the second.

Going from UACGUAGGUGGUUUUCCCCUGAUAGUGCUAAGGGAGCCUGGAAGUUUGGACUGGGCAGAGCUCAACACAGCGUGGCAAAGUGGCUGUGGCUAGACUGCCUCUCUGGAUUCCUCGUCACUCAGCAGGGCAUCUCUGUGAGAAAUGCC [G35A A136U] to UACGUAGGUGGUUUUCCCCUGAUAGUGCUAAGGUGGCCUGGAAGUUUGGACUGGGCAGAGCUCAACACAGCGUGGCAAAGUGGCUGUGGCUAGACUGCCUCUCUGGAUUCCUCGUCACUCAGCAGGGCAUCCCUGAGAGAAAUGCC [G34U U132C], the self-cleavage rises from 1.1 to 1.51.

Going from UACGUAGGUGGUUUUCCCCUGAUAGUGCUAAGGGAGCCUGGAAGAUUGGACUGGGCAGAGCUCAACACAGCGUGGCAAAGUGGCUGUGGCUAGACUGCCUCUCUGGAUUCCUCGUCACUCAGCAGGGCAUCUCUGAGAGAAAUGCC [G35A U45A] to UACGUAGGUGGUUUUCCCCUGAUAGUGCUAAGGGAGCCUGGAAGUUUGGACUGGGCAGAGCUCAACACAGCGUGGUAAAGUGGCUGUGGCUAGACUGCCUCUCUGGAUUCCUCGUCACUCAGCAGGGCAUCUCUGAGAGAAAUGCC [G35A C76U], the self-cleavage rises from 1.28 to 2.14.

Compared with UACGUAGGUGGUUUUCCCCUGAUAGUGCUAAGGGAGCCUGGAAGUUUGGACUGGGCAGAGCUCAACACAGCGUGGCAAUGUGGCUGUGGCUAGACUGCCUCUCUGGAUUCCUCGUCACUCAGCAGGGCAUCUCUGAGAGAAAUGCC [G35A A79U], UACGUAGGUGGUUUUCCCCUGAUAGUGCUAAGGUGGCCUGGAAGUUCGGACUGGGCAGAGCUCAACACAGCGUGGCAAAGUGGCUGUGGCUAGACUGCCUCUCUGGAUUCCUCGUCACUCAGCAGGGCAUCUCUGAGAGAAAUGCC [G34U U47C] is higher in self-cleavage: 1.72 for the first, 2.18 for the second.

Going from UACGUAGGUGGUUUUCCCCUGAUAGUGCUAAGGGAGCCUGGAAGUUUGGACUGGGCAGAGCUCAACACAGCGUGGCAAAGUGGCUGUGGCUGGACUGCCUCUCUGGAUUCCUCGUCACUCAGCAGGGCAUCUCUGAGAGAAAUGCC [G35A A92G] to UACGUAGGUGGUUUUCCCCUGAUAGUGCUAAGGGAGCCUGGAAGUUUGGACUGGGCAGAGCUCAACACAGCGUGGCAAAGUGGCUGUGGCUAGACUGCCUCUCUGGAUUCCUCGUCACUCAGCAGGGCAUCUCUGAGAGAGAUGCC [G35A A141G], the self-cleavage rises from 0.02 to 1.39.

Going from UACGUAGGUGGUUUUCCCCUGAUAGUGCUAAGGUGGCCUGGAAGUUUGGACUGGGCAGAGCUCAACACAGCGUGGCAAAGUGGCUGUGGCCAGACUGCCUCUCUGGAUUCCUCGUCACUCAGCAGGGCAUCUCUGAGAGAAAUGCC [G34U U91C] to UACGUAGGUGGUUUUCCCCUGAUAGUGCUAAGGUGGCCUGGAAGUUUGGACUGGGCAGAGCUCAACACAGCGUGGCAAAGUGGCUGUGGCAAGACUGCCUCUCUGGAUUCCUCGUCACUCAGCAGGGCAUCUCUGAGAGAAAUGCC [G34U U91A], the self-cleavage falls from 0.51 to 0.49.

Compared with UACGUAGGUGGUUUUCCCCUGAUAGUGCUAAGGUGGCCUGGAAGUUUGGACUGGGCAGAGCUCAACACAGCGUGGCAAAGUGGCUGUGGCUAGACUGCCUCUCAGGAUUCCUCGUCACUCAGCAGGGCAUCUCUGAGAGAAAUGCC [G34U U104A], UACGUAGGUGGUUUUCCCCUGAUAGUGCUAAGGGAGCCUGGAAGUUUGGACUGGGCAGAGCUCAACACAGCGUGGCAAAGUGGCUGUGGCUAGACUGCCUCUCUGGAUUCCUCGUCACUCUGCAGGGCAUCUCUGAGAGAAAUGCC [G35A A121U] is lower in self-cleavage: 1.53 for the first, 0.97 for the second.

Going from UACGUAGGUGGUUUUCCCCUGAUAGUGCUAAGGGAGCCUGGAGGUUUGGACUGGGCAGAGCUCAACACAGCGUGGCAAAGUGGCUGUGGCUAGACUGCCUCUCUGGAUUCCUCGUCACUCAGCAGGGCAUCUCUGAGAGAAAUGCC [G35A A43G] to UACGUAGGUGGUUUUCCCCUGAUAGUGCUAAGGGAGCCUGGAAGUUUGGACUGGGCAGAGCUCAACACAGCGCGGCAAAGUGGCUGUGGCUAGACUGCCUCUCUGGAUUCCUCGUCACUCAGCAGGGCAUCUCUGAGAGAAAUGCC [G35A U73C], the self-cleavage rises from 0.71 to 1.19.

Going from UACGUAGGUGGUUUUCCCCUGAUAGUGCUAAGGGAGCCUGGAAGUUUGGACUGGGCAGAGCUCAACACAGCGUGGCAAAGUGGCUGUGGCUAGAAUGCCUCUCUGGAUUCCUCGUCACUCAGCAGGGCAUCUCUGAGAGAAAUGCC [G35A C95A] to UACGUAGGUGGUUUUCCCCUGAUAGUGCUAAGGGAGCCUGGAAGUUUGGACUGGGCAGAGCUCAACACAGCGUGGCAAAGUGGCUGUGGCUAGACUGCCUCUCUGGAUUCCUCGUCACUCAGCAUGGCAUCUCUGAGAGAAAUGCC [G35A G125U], the self-cleavage rises from 0.07 to 1.03.

Going from UACGUAGGUGGUUUUCCCCUGAUAGUGCUAAGGGAGCCUGGAAGUUUGGACUGGGCAGAGCUCAACACAGCGUGGCAAAGUGGCUGUGGCUAGACUGCCUCUCUAGAUUCCUCGUCACUCAGCAGGGCAUCUCUGAGAGAAAUGCC [G35A G105A] to UACGUAGGUGGUUUUCCCCUGAUAGUGCUAAGGGAGCCUGGAAGUUUGGACUGGGCAGAGCUCAACGCAGCGUGGCAAAGUGGCUGUGGCUAGACUGCCUCUCUGGAUUCCUCGUCACUCAGCAGGGCAUCUCUGAGAGAAAUGCC [G35A A67G], the self-cleavage falls from 1.15 to 0.22.

Compared with UACGUAGGUGGUUUUCCCCUGAUAGUGCUAAGGUGGCCUGGAAGUUUGGACUGGGCAGAGCUCAACACAGCGUGGCAAAGUGGCUGUGGCUAGACUGCCUCUCUGGAUUCCUCGUCACCCAGCAGGGCAUCUCUGAGAGAAAUGCC [G34U U119C], UACGUAGGUGGUUUUCCCCUGAUAGUGCUAAGGGAGCCUGGAAGUUUGGACUGGGCAGAGCUCAACACAGCGUGGCAAAGUGGCUGUGGCUAGACUGCCUCUCUGGAUUCCUCGUCACUCAGCGGGGCAUCUCUGAGAGAAAUGCC [G35A A124G] is lower in self-cleavage: 1.7 for the first, 0.61 for the second.

First: UACGUAGGUGGUUUUCCCCUGAUAGUGCUAAGGGAGCCUGGAAGUUUGGACAGGGCAGAGCUCAACACAGCGUGGCAAAGUGGCUGUGGCUAGACUGCCUCUCUGGAUUCCUCGUCACUCAGCAGGGCAUCUCUGAGAGAAAUGCC [G35A U52A]
Second: UACGUAGGUGGUUUUCCCCUGAUAGUGCUAAGGGAGCCUGGAAGUUUGGACUGGGCAGAGCUCAACACAGCGUGGCAAAGUGGCUGUGGCUAGACUGCCUCUCUGGAUUCCUCGUCACUCAGCAGGGCUUCUCUGAGAGAAAUGCC [G35A A129U]
The self-cleavage of the first is lower: 0.86 for the first, 1.62 for the second.

Going from UACGUAGGUGGUUUUCCCCUGAUAGUGCUAAGGGAGCCUGGAAGUUUGGACUGGGCAGAGCCCAACACAGCGUGGCAAAGUGGCUGUGGCUAGACUGCCUCUCUGGAUUCCUCGUCACUCAGCAGGGCAUCUCUGAGAGAAAUGCC [G35A U62C] to UACGUAGGUGGUUUUCCCCUGAUAGUGCUAAGGGAGCCUGGAAGUUUGGACUGGGCAGAGCACAACACAGCGUGGCAAAGUGGCUGUGGCUAGACUGCCUCUCUGGAUUCCUCGUCACUCAGCAGGGCAUCUCUGAGAGAAAUGCC [G35A U62A], the self-cleavage rises from 0.03 to 0.05.

Compared with UACGUAGGUGGUUUUCCCCUGAUAGUGCUAAGGGAGCCUGGAAGUUUGGACUGGGCAGAGCUCAACACAGCGUGGCUAAGUGGCUGUGGCUAGACUGCCUCUCUGGAUUCCUCGUCACUCAGCAGGGCAUCUCUGAGAGAAAUGCC [G35A A77U], UACGUAGGUGGUUUUCCCCUGAUAGUGCUAAGGGAGCCUGGAAGUUUGGACUGGGCAGAGCUCAACACAGCGUGGCGAAGUGGCUGUGGCUAGACUGCCUCUCUGGAUUCCUCGUCACUCAGCAGGGCAUCUCUGAGAGAAAUGCC [G35A A77G] is higher in self-cleavage: 0.8 for the first, 1.92 for the second.

Variant UACGUAGGUGGUUUUCCCCUGAUAGUGCUAAGGGAGCCUGGAAGUUUGGACUGGGCAGAGCUCAACACAGCGUGGCAAAGUGGCUAUGGCUAGACUGCCUCUCUGGAUUCCUCGUCACUCAGCAGGGCAUCUCUGAGAGAAAUGCC [G35A G86A] has a self-cleavage of 0.05.
